The record followed here is patent US20090082270A1 (ACCELERON PHARMA, published 2009).

B1: Activin A (ligand, UniProt P08476 311-426, looked up)
chain: GLECDGKVNICCKKQFFVSFKDIGWNDWIIAPSGYHANYCEGECPSHIAGTSGSSLSFHSTVINHYRMRGHSPFANLKSCCVPTKLRPMSMLYYDDGQNIIKKDIQNMIVEECGCS
B2: Human Coco, full length, Fc (TGGG linker and mFc) (Fc fusion)
chain: GRPEPQSPRPQSWAAANQTWALGPGALPPLVPASALGSWKAFLGLQKARQLGMGRLQRGQDEVAAVTLPLNPQEVIQGMCKAVPFVQVFSRPGCSAIRLRNHLCFGHCSSLYIPGSDPTPLVLCNSCMPARKRWAPVVLWCLTGSSASRRRVKISTMLIEGCHCSPKATGGGTHTCPPCPAPELLGGPSVFLFPPKPKDTLMISRTPEVTCVVVDVSHEDPEVKFNWYVDGVEVHNAKTKPREEQYNSTYRVVSVLTVLHQDWLNGKEYKCKVSNKALPVPIEKTISKAKGQPREPQVYTLPPSREEMTKNQVSLTCLVKGFYPSDIAVEWESNGQPENNYKTTPPVLDSDGSFFLYSKLTVDKSRWQQGNVFSCSVMHEALHNHYTQKSLSLSPGK
notes: Tested as conditioned medium; also called Coco-mFc; human Coco-mFc

One test concerns the target T1, human Cerberus (human, UniProt O95813 18-267, limits assumed).
T1 construct: it includes the native leader
T1 sequence: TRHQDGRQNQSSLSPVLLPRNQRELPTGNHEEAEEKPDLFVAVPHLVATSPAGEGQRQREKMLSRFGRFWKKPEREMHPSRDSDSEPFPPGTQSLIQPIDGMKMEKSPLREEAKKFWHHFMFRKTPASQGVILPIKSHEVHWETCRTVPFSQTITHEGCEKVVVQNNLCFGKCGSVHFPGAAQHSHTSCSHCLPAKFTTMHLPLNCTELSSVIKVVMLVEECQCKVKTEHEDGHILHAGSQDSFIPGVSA
Description: "similar experiments" to the A-204 reporter gene assay; method not further described. For orientation: Reporter assays use an easily measured gene product as a stand-in for the process of interest.

The test “Activin A” addresses B1. The test is described as above.

In the case of B1, the binding result in the test with human Cerberus is on record as “no binding”.

B2: the binding result with Activin A was “no binding”.
